Measured values: CN114605536A (JIANGSU QUANXIN BIOMEDICINE CO LTD, dated 2022)

Columns and labels:
[1] = biological target: T1, 人胸腺基质淋巴细胞生成素 (Human Thymic Stromal Lymphopoietin, TSLP) (human, UniProt Q969D9 29-159); assay: SPR, Biacore T200, 25°C, antibody captured on Protein A chip, human TSLP as analyte, 1:1 model, mean of three runs
T1 construct: also called 人TSLP; hTSLP

食蟹猴TSLP = 食蟹猴TSLP (cynomolgus monkey (食蟹猴), UniProt A0A7N9CAT7 29-159); assay: cell-based or functional assay
[2] = biological target: T1, 人胸腺基质淋巴细胞生成素 (Human Thymic Stromal …); assay: cell-based or functional assay

Sequence of 食蟹猴TSLP (A0A7N9CAT7 entry or part of it): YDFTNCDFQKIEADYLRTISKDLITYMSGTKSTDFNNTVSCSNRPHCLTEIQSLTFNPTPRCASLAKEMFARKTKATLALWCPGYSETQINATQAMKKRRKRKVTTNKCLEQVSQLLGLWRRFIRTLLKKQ

Binder | Kd [1] [nM] | koff [1] [s⁻¹] | kon [1] [M⁻¹ s⁻¹] | 抑制食蟹猴TSLP诱导的SW756-STAT5-Luciferase报告基因细胞STAT5磷酸化活性的IC50 (食蟹猴TSLP) [ng/mL] | 抑制人TSLP诱导的PBMC细胞释放TARC(CCL17)活性的IC50 [2] [ng/mL] | 抑制人TSLP诱导的SW756-STAT5-Luciferase报告基因细胞STAT5磷酸化活性的IC50 [2] [ng/mL] | 抑制人TSLP诱导的全血释放TARC(CCL17)活性的IC50 [2] [ng/mL]
QX008N (HZD8G2-57) (antibody, V domains shown) VH: EVQLVESGGGLVQPGGSLRLSCAASGFSLSSYYMSWVRQAPGKGLEWVGFISYGGSAYHATWAQGRFTISKDNSKNTLYLQMNSLRAEDTAVYYCAREFRSMTYGAEWGIWGQGTLVTVSS VL: AYQMTQSPSSVSASVGDRVTITCQASESIYDTLAWYQQKPGKAPKLLIYSASSLASGVPSRFSGSGSGTDFTLTISSLQPEDFATYYCQQGYTMPDVDKNPFGGGTKVEIKR | 0.0175 | 2.99e-05 | 1.74e+06 | 0.889 | 77.1 | 0.837 | 0.839
Tezepelumab (antibody, V domains shown) VH: QMQLVESGGGVVQPGRSLRLSCAASGFTFRTYGMHWVRQAPGKGLEWVAVIWYDGSNKHYADSVKGRFTITRDNSKNTLNLQMNSLRAEDTAVYYCARAPQWELVHEAFDIWGQGTMVTVSS VL: SYVLTQPPSVSVAPGQTARITCGGNNLGSKSVHWYQQKPGQAPVLVVYDDSDRPSWIPERFSGSNSGNTATLTISRGEAGDEADYYCQVWDSSSDHVVFGGGTKLTVLG | – | – | – | 1.88 | – | – | –
